Experimental data: PMC5028935, “De novo synthesis of fatty acids is regulated by FapR protein in Exiguobacterium antarcticum B7, a psychrotrophic bacterium isolated from Antarctica”

Molecular target: T1, FapR (Exiguobacterium antarcticum B7, UniProt A0ABT6QZ49 1-189)
T1 sequence: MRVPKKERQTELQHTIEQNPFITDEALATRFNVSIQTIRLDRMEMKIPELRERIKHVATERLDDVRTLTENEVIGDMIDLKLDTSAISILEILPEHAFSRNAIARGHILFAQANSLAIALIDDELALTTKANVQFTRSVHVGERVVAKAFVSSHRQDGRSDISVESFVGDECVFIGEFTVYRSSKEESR
Assay: EMSA; 2, 2.8, 3.8 and 4.5 uM protein; no shift; 10 mM Tris-HCl (pH not given), 0.2 mM DTT, 0.2 mM EDTA, 0.25 mM KCl (so in the source), 1 h on ice; 7.5% native PAGE, SYBR Safe stain
Conditions: protein: recombinant; (pET-46 Ek/LIC vector adds a His tag); chain copies: 2

B1: fapR-plsX-fabD-fabG promoter, synthesized up to the palindrome (dsDNA)
DNA 1: TACTTGAAAGTGAACAACAAGGGATATATACTACTATTAGTACCAGGTAATAA
DNA 2: TTATTACCTGGTACTAATAGTAGTATATATCCCTTGTTGTTCACTTTCAAGTA
**Q.** Does B1 bind?
**A.** Result: no binding
